# According to IntAct's records for PubMed 30564455:
# Biological target: ddb1_human DDB1 (UniProt Q16531)
# Sequence (Q16531 whole entry): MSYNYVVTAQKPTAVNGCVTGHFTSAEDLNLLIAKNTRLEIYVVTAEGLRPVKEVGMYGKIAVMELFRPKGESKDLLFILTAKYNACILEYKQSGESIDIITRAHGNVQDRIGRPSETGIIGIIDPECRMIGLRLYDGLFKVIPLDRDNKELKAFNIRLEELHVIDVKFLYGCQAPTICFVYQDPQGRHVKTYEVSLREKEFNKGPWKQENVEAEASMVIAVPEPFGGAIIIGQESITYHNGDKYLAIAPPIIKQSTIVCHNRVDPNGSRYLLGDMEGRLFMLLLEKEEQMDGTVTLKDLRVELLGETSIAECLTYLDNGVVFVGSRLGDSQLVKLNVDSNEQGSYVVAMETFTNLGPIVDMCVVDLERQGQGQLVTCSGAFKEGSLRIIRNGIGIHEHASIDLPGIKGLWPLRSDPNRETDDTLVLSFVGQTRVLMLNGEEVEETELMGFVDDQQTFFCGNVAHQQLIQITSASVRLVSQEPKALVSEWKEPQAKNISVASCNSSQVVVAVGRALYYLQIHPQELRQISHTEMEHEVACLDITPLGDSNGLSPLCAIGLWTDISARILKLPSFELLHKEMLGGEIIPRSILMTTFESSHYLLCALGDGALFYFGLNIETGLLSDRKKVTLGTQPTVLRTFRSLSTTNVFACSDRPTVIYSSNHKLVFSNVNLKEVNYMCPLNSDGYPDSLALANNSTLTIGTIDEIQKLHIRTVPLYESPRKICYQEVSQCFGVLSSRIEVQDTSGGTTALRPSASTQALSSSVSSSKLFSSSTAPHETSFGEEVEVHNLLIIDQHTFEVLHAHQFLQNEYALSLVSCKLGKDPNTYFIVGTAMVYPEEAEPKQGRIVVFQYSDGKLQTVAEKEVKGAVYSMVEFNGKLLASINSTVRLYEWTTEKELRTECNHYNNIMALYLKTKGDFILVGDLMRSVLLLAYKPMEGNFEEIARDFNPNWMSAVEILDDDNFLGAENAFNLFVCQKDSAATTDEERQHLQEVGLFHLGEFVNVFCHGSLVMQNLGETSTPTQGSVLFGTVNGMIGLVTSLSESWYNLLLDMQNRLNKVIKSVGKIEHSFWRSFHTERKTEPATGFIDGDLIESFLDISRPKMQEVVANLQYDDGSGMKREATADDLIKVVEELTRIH
row,effect of a mutation on the interaction,Substance
1,disrupting interaction strength,DET1- and DDB1-associated protein 1 (Homo sapiens) (from UniProt Q9BW61) F16D
2,disrupting interaction strength,DET1- and DDB1-associated protein 1 (Homo sapiens) (from UniProt Q9BW61) H20D
3,disrupting interaction strength,DET1- and DDB1-associated protein 1 (Homo sapiens) (from UniProt Q9BW61) N15D
4,disrupting interaction strength,DET1- and DDB1-associated protein 1 (Homo sapiens) (from UniProt Q9BW61) P9D
